This data set concerns the molecule itself. Description: negative stain electron microscopy; MtbSepFΔML 50 µM in 50 mM HEPES pH 7.4, 300 mM KCl, 10 mM MgCl2.

B1: M. tuberculosis SepFΔML (domain or fragment)
chain: EDGHPLSKITTLRPKDYSEARTIGERFRDGSPVIMDLVSMDNADAKRLVDFAAGLAFALRGSFDKVATKVFLLSPADVDVSPEERRRIAETGFYAYQ
notes: also called MtbSepFΔML
With B1, the binding result was “binds”.

The values above are taken from publication PMC7118173 (Nature Communications, 2020).
